# Laboratory results from article PMC3744483, “Swiprosin-1 Is a Novel Actin Bundling Protein That Regulates Cell Spreading and Migration” (PLoS ONE, 2013).
# B1: His-tagged wild-type swiprosin-1 (natural protein, human, UniProt Q96C19 1-240, looked up)
# chain: MATDELATKLSRRLQMEGEGGGETPEQPGLNGAAAAAAGAPDEAAEALGSADCELSAKLLRRADLNQGIGEPQSPSRRVFNPYTEFKEFSRKQIKDMEKMFKQYDAGRDGFIDLMELKLMMEKLGAPQTHLGLKNMIKEVDEDFDSKLSFREFLLIFRKAAAGELQEDSGLCVLARLSEIDVSSEGVKGAKSFFEAKVQAINVSSRFEEEIKAEQEERKKQAEEMKQRKAAFKELQSTFK
# notes: swiprosin-1, human, full-length clone amplified from pOTB7 (RZPD), cloned into a modified pET-28a; The modified pET-28a carries a TEV protease cleavage site (ENLYFQ/G) with the N-terminal tandem His tags; no cleavage is described and the protein is detected with anti-His; also called Swip-1; source: E. coli BL21 (DE3), purified (Ni-NTA agarose); not shown: His tag (tandem), N-terminal, kept
# Key:
# [1] = target: B1; assay: pull-down; GST pull-down: equal amounts of purified GST_Swip-1 (wild type or mutants) and His_Swip-1 with glutathione-Sepharose 4B beads, 2 h at 4°C, 50 mM Hepes pH 7.4, 150 mM NaCl, 1.5 mM MgCl2, 1% Triton X-100; blot with anti-His; also with or without 2 mM EGTA; conditions: both partners purified
# [2] = target: T1, GST-tagged wild-type swiprosin-1 (human, UniProt Q96C19 1-240); assay: as above; conditions: both partners purified
# T1 construct: swiprosin-1, human, full length, in pGEX-4T-1; source: E. coli BL21, purified (glutathione beads, eluted with glutathione)
# T1 sequence (looked up): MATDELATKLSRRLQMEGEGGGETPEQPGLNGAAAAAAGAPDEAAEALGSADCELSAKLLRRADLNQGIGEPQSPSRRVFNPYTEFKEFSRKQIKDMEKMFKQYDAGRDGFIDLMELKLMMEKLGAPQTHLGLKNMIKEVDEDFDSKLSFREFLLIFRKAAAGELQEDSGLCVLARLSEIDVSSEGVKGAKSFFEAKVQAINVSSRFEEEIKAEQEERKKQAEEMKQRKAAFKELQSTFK
binder,measurement,setting,value
"GST-tagged swiprosin-1 163–240 (domain or fragment, human, UniProt Q96C19 163-240, looked up, swiprosin-1, human, residues 163–240 (C-terminal region with the coiled-coil domain), in pGEX-4T-1; also called 163–240 (h); source: E. coli BL21, purified (glutathione beads, eluted with glutathione)) GELQEDSGLCVLARLSEIDVSSEGVKGAKSFFEAKVQAINVSSRFEEEIKAEQEERKKQAEEMKQRKAAFKELQSTFK",binding result,[1],binds
"AINVSSRFEEEIKAEQEERKKQAEEMKQRKAAFKELQSTFK (domain or fragment, human, UniProt Q96C19 200-240, looked up, swiprosin-1, human, residues 200–240 (C-terminal coiled-coil region), in pGEX-4T-1; also called 200–240 (i); source: E. coli BL21, purified (glutathione beads, eluted with glutathione)) [GST-tagged swiprosin-1 200–240]",binding result,[1],binds
B1,binding result,[2],binds
